Measured values as given in IntAct's records for PubMed 19763089.

B1: NF-kappa-B essential modulator (Mus musculus), O88522 (parent)
chain: MNKHPWKNQLSEMVQPSGGPAEDQDMLGEESSLGKPAMLHLPSEQGTPETLQRCLEENQELRDAIRQSNQMLRERCEELLHFQVSQREEKEFLMCKFQEARKLVERLSLEKLDLRSQREQALKELEQLKKCQQQMAEDKASVKAQVTSLLGELQESQSRLEAATKDRQALEGRIRAVSEQVRQLESEREVLQQQHSVQVDQLRMQNQSVEAALRMERQAASEEKRKLAQLQAAYHQLFQDYDSHIKSSKGMQLEDLRQQLQQAEEALVAKQELIDKLKEEAEQHKIVMETVPVLKAQADIYKADFQAERHAREKLVEKKEYLQEQLEQLQREFNKLKVGCHESARIEDMRKRHVETPQPPLLPAPAHHSFHLALSNQRRSPPEEPPDFCCPKCQYQAPDMDTLQIHVMECIE

Columns and labels:
ubc_human UBC, P0CG48 [1] = variants of: B1; conditions: with ubc_human UBC
ubc_human UBC, P0CG48 [2] = variants of: B1; conditions: with ubc_human UBC; remark: listed apart in the source

ubc_human UBC, P0CG48, sequence (P0CG48 whole entry, looked up): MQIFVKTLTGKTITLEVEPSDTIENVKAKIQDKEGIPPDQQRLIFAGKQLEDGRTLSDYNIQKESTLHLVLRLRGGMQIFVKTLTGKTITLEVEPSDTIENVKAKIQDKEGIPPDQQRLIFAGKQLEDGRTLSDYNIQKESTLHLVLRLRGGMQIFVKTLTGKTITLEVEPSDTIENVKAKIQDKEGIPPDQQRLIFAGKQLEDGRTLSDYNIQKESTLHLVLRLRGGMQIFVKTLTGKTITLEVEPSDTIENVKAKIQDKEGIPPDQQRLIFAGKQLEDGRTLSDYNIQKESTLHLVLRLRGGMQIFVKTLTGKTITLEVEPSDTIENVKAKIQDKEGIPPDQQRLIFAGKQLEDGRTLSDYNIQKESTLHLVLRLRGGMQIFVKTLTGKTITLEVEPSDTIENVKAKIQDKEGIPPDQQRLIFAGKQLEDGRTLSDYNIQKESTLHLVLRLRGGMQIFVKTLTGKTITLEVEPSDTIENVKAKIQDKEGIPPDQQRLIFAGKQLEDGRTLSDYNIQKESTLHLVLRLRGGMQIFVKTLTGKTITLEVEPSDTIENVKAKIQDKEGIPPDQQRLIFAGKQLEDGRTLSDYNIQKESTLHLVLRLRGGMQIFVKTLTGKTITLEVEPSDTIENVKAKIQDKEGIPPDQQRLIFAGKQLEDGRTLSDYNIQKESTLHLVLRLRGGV

| Variant | effect of a mutation on the interaction (ubc_human UBC, P0CG48 [1]) | effect of a mutation on the interaction (ubc_human UBC, P0CG48 [2]) |
| --- | --- | --- |
| MNKHPWKNQLSEMVQPSGGPAEDQDMLGEESSLGKPAMLHLPSEQGTPETLQRCLEENQELRDAIRQSNQMLRERCEELLHFQVSQREEKEFLMCKFQEARKLVERLSLEKLDLRSQREQALKELEQLKKCQQQMAEDKASVKAQVTSLLGELQESQSRLEAATKDRQALEGRIRAVSEQVRQLESEREVLQQQHSVQVDQLRMQNQSVEAALRMERQAASEEKRKLAQLQAAYHQLFQDYDSHIKSSKGMQLEDLRQQLQQAEEALVAKQELIDKLKEEAEQHKIVMETVPVLKAQADIYKANFQAERHAREKLVEKKEYLQEQLEQLQREFNKLKVGCHESARIEDMRKRHVETPQPPLLPAPAHHSFHLALSNQRRSPPEEPPDFCCPKCQYQAPDMDTLQIHVMECIE [D304N] | disrupting interaction | decreasing interaction |
| MNKHPWKNQLSEMVQPSGGPAEDQDMLGEESSLGKPAMLHLPSEQGTPETLQRCLEENQELRDAIRQSNQMLRERCEELLHFQVSQREEKEFLMCKFQEARKLVERLSLEKLDLRSQREQALKELEQLKKCQQQMAEDKASVKAQVTSLLGELQESQSRLEAATKDRQALEGRIRAVSEQVRQLESEREVLQQQHSVQVDQLRMQNQSVEAALRMERQAASEEKRKLAQLQAAYHQLFQDYDSHIKSSKGMQLEDLRQQLQQAEEALVAKQELIDKLKEEAEQHKIVMETVPVLKAQADISKADFQAERHAREKLVEKKEYLQEQLEQLQREFNKLKVGCHESARIEDMRKRHVETPQPPLLPAPAHHSFHLALSNQRRSPPEEPPDFCCPKCQYQAPDMDTLQIHVMECIE [Y301S] | disrupting interaction | decreasing interaction |
